Test in all cases: cell-based or functional assay
Assay [1] addresses T1, Chryseobacterium sp-62563 deamidase Q130K (Chryseobacterium sp-62563).
T1 sequence: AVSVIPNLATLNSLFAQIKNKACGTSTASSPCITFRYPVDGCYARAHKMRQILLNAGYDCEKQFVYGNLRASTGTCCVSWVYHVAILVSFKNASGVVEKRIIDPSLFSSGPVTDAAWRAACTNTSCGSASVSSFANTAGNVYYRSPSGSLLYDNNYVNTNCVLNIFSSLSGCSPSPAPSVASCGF

Assay [2] deals with T2, Chryseobacterium sp-62563 deamidase Q130N (Chryseobacterium sp-62563).
T2 sequence: T1 sequence with K21N

Assay [3] addresses T3, Chryseobacterium sp-62563 deamidase C169S (Chryseobacterium sp-62563).
T3 sequence: T1 sequence with K21Q, C60S

In assay [4] the target is T4, Chryseobacterium sp-62563 deamidase Q126N (Chryseobacterium sp-62563).
T4 sequence: T1 sequence with Q17N, K21Q

Assay [5] concerns the target T5, Chryseobacterium sp-62563 deamidase Q160R (Chryseobacterium sp-62563).
T5 sequence: T1 sequence with K21Q, Q51R

In assay [6] the target is T6, Chryseobacterium sp-62563 deamidase Q172V (Chryseobacterium sp-62563).
T6 sequence: T1 sequence with K21Q, Q63V

Assay [7] deals with T7, Chryseobacterium sp-62563 deamidase Q172N (Chryseobacterium sp-62563).
T7 sequence: T1 sequence with K21Q, Q63N

The target in assay [8] is T8, Chryseobacterium sp-62563 deamidase Q160D (Chryseobacterium sp-62563).
T8 sequence: T1 sequence with K21Q, Q51D

Assay [9] deals with T9, Chryseobacterium sp-62563 deamidase Q126D (Chryseobacterium sp-62563).
T9 sequence: T1 sequence with Q17D, K21Q

In assay [10] the target is T10, Chryseobacterium sp-62563 deamidase Q160W (Chryseobacterium sp-62563).
T10 sequence: T1 sequence with K21Q, Q51W

Assay [11] addresses T11, Chryseobacterium sp-62563 deamidase Q126F (Chryseobacterium sp-62563).
T11 sequence: T1 sequence with Q17F, K21Q

Assay [12] has as its target T12, Chryseobacterium sp-62563 deamidase C230H (Chryseobacterium sp-62563).
T12 sequence: T1 sequence with K21Q, C121H

Assay [13] concerns the target T13, Chryseobacterium sp-62563 deamidase Q160N (Chryseobacterium sp-62563).
T13 sequence: T1 sequence with K21Q, Q51N

Substitutions are numbered along the chain they refer to. Names and notes keep the numbering of the source.

B1: Chryseobacterium sp-62563 propeptide F99A (protein)
chain: NQDPNLVAKESNETAMKDFGKTVPVGIEKEDGKFKISFMVTAQPYEIKDSKENAAYISMIKTAVENETPIHVFLKANTNEIAKVDKATDDDIRYFKSVATKEVKEENRK
For the molecule B1, the Relative activity of maturated deamidase (% initial rate) is 92 in [1]; 79 in assay [2]; above 100 in assay [3]; above 100 in assay [4]; 86 in [5]; 66 in assay [6]. Further, the Relative activity of maturated deamidase (% initial rate) in [7] was 51; in assay [8], above 100; in assay [9], 99; in assay [10], above 100; in assay [11], 52; in assay [13], above 100. Moreover, the Leakage activity in assay [2] worked out at 0%; in assay [3], 1%; in assay [10], 2%; in assay [12], 0%.
